Results published in article PMC3563642, “MERTK Interactions with SH2-Domain Proteins in the Retinal Pigment Epithelium” (PLoS ONE, 2013).

T1: 6xHis-rMERTK(571–999), full-length human MERTK cytoplasmic domain (human, UniProt Q12866 571-999, autophosphorylated on tyrosine (incubated with ATP/MgCl2); sites Y749, Y753, Y754 were mapped on rMERTK571–864, not on this construct)
T1 construct: Expressed from the pET28a-LIC vector; also called MERTK intracellular domain; source: E. coli BL21 DE3 Gold, purified (Ni2+-NTA, Sephacryl S-200 HR), autophosphorylated with 10 mM ATP, 10 mM MgCl2
T1 sequence (looked up): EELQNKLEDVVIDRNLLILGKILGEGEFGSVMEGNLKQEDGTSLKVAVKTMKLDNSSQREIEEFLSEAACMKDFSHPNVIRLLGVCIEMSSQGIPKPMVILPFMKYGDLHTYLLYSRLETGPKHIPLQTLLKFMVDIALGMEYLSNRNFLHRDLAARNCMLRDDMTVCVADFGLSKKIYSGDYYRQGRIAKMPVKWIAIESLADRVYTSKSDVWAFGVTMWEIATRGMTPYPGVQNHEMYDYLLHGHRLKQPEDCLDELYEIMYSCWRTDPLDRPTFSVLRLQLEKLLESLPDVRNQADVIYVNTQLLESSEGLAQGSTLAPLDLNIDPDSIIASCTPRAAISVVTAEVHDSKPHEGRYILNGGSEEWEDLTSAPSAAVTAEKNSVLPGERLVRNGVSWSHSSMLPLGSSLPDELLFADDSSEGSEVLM

B1: VAV1 GST-SH2 domain fusion protein (domain or fragment, human, UniProt P15498 671-765, looked up)
chain: WYAGPMERAGAESILANRSDGTFLVRQRVKDAAEFAISIKYNVEVKHIKIMTAEGLYRITEKKAFRGLTELVEFYQQNSLKDCFKSLDTTLQFPF
notes: pGEX2T construct from a library of SH2 domains; also called rSH2-domain fusion protein corresponding to VAV1; source: E. coli BL21 DE3 Gold, purified (glutathione-agarose, Sephacryl S-200 HR)
B2: VAV3 GST-SH2 domain fusion protein (domain or fragment, human, UniProt Q9UKW4 672-766, looked up)
chain: WYAGAMERLQAETELINRVNSTYLVRHRTKESGEYAISIKYNNEAKHIKILTRDGFFHIAENRKFKSLMELVEYYKHHSLKEGFRTLDTTLQFPY
notes: pGEX2T construct from a library of SH2 domains; also called rSH2-domain fusion protein corresponding to VAV3; source: E. coli BL21 DE3 Gold, purified (glutathione-agarose, Sephacryl S-200 HR)
B3: HCK GST-SH2 domain fusion protein (domain or fragment, human, UniProt P08631 144-241, looked up)
chain: WFFKGISRKDAERQLLAPGNMLGSFMIRDSETTKGSYSLSVRDYDPRQGDTVKHYKIRTLDNGGFYISPRSTFSTLQELVDHYKKGNDGLCQKLSVPC
notes: pGEX2T construct from a library of SH2 domains; also called rSH2-domain fusion protein corresponding to HCK; source: E. coli BL21 DE3 Gold, purified (glutathione-agarose, Sephacryl S-200 HR)

biological target: T1, 6xHis-rMERTK(571–999), full-length …; assay: pull-down; Ni2+-NTA pull down: GST-rSH2-domain protein (10 µg) incubated with autophosphorylated 6xHis-rMERTK571–999 (10 µg) in 50 mM NaH2PO4, 300 mM NaCl, 10 mM imidazole, 0.1 µM PMSF, 1 h at 4°C, then Ni2+-NTA resin 0.5 h; washes with 50 mM imidazole, elution with 500 mM imidazole; Coomassie-stained SDS gels; negative control omits rMERTK; conditions: both partners purified

Binding result, binds:
B1
B2
B3
